Measurements from US20170233703A1.

Legend:
[1] = target: C-terminal dCas9 constituent split at residue 1153 fused to Suntag (Streptococcus pyogenes) (UniProt Q99ZW2)
[2] = target: IntC:dCas9C:Suntag containing the residues from 1154 to 1368 (Streptococcus pyogenes) (UniProt Q99ZW2)
[3] = target: dCas9M:IntN containing the residues from 714 to 1153 (Streptococcus pyogenes) (UniProt Q99ZW2)
[4] = target: IntC:dCas9C-VRER:VPR split at residue 713 (two-output sensory switch, FIG. 27) (Streptococcus pyogenes) (UniProt Q99ZW2)
[5] = target: IntC:dCas9C:VPR split at residue 713 (dCas9 from residue 714) (Streptococcus pyogenes) (UniProt Q99ZW2)

“N-terminal dCas9 constituent split at residue 1153 (intein fusion not stated at the place of the experiment) (from UniProt Q99ZW2)” showed a TagBFP expression, three-input logic AND circuit (two split-dCas9 constituents and rapalog), HEK293 cells [1] of 140 fold.

“dCas9M:IntN containing the residues from 714 to 1153 (from UniProt Q99ZW2)” was tested, and the TagBFP expression, three-input logic AND circuit of three split-dCas9 fragments, HEK293 cells [2] was 110 fold.

For “dCas9N containing dCas9 residues from 1 to 713, without intein fusion (from UniProt Q99ZW2)”, the TagBFP expression, three-input logic AND circuit of three split-dCas9 fragments, HEK293 cells [3] was 110 fold.

“dCas9N:IntN split at residue 713 (from UniProt Q99ZW2)” showed a mKate2 expression, two-input two-output sensory switch set by shRNA-FF5 and shRNA-FF4 [4] of 20 fold and an EYFP expression, two-input two-output sensory switch set by shRNA-FF5 and shRNA-FF4 [5] of 20 fold.
